Series [1] concerns the target T1, NUCB1 CaBD (Homo sapiens) (UniProt Q02818).
T1 sequence: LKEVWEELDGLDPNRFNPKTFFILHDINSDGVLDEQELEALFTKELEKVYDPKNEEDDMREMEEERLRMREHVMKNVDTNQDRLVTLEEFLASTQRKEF
Description: SPR. The settings on record: SPR: 50 mM Tris-HCl pH 8.0, 200 mM NaCl, 0.1% Tween-20, with or without 2 mM CaCl2, 25 °C; 5'-biotinylated RNA immobilized, NUCB1 as analyte, 1:1 model.

The next series has as its target T2, NUCB1 ΔN (Homo sapiens) (UniProt Q02818).
T2 sequence: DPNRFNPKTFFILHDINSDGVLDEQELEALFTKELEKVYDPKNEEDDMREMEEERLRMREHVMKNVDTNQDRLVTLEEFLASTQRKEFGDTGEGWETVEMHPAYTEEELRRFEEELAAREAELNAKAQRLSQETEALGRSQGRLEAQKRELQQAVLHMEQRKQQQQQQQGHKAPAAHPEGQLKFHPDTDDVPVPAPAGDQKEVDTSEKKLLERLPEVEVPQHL
Description: SPR. The settings on record: SPR: 50 mM Tris-HCl pH 8.0, 200 mM NaCl, 0.1% Tween-20, with or without 2 mM CaCl2, 25 °C; 5'-biotinylated RNA immobilized, NUCB1 as analyte, 1:1 model.

Another series concerns the target T3, NUCB1 ΔZ (Homo sapiens) (UniProt Q02818).
T3 sequence: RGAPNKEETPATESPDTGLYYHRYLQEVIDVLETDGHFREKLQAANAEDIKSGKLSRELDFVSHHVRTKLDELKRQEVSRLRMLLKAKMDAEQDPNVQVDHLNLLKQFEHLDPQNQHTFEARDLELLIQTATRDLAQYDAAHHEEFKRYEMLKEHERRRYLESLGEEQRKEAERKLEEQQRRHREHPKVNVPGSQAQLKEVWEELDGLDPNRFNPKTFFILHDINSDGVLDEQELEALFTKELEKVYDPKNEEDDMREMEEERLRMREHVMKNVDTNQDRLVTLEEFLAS
Put plainly: SPR. The settings on record: SPR: 50 mM Tris-HCl pH 8.0, 200 mM NaCl, 0.1% Tween-20, with or without 2 mM CaCl2, 25 °C; 5'-biotinylated RNA immobilized, NUCB1 as analyte, 1:1 model.

Series [2] deals with the molecule itself. Description: SEC; size-exclusion chromatography of the final preparations on Superdex 200 in 150 mM NaCl, 50 mM Tris-HCl (pH 8.0); oligomeric state of each protein. A general note: In gel filtration, larger molecules generally elute earlier.
The target of another series is T4, NUCB1 ΔZ (Homo sapiens, UniProt Q02818 31-320).
T4 sequence: T3 sequence
Description: SPR; SPR: 50 mM Tris-HCl pH 8.0, 200 mM NaCl, 0.1% Tween-20, with or without 2 mM CaCl2, 25 °C; 5'-biotinylated RNA immobilized, NUCB1 as analyte, 1:1 model. The settings on record: protein: recombinant; tags: N-terminal His6; label: 5'-biotin.

A further series deals with T5, NUCB1 ΔN (Homo sapiens, UniProt Q02818 239-461).
T5 sequence: T2 sequence
Described as above. The settings on record: protein: recombinant; tags: N-terminal His6; label: 5'-biotin.

The target of the next series is T6, NUCB1 CaBD (Homo sapiens, UniProt Q02818 228-326).
T6 sequence: T1 sequence
The series is described as above. The settings on record: protein: recombinant; tags: N-terminal His6; label: 5'-biotin.

These results are taken from PMC10093973, “The RNA-Binding and RNA-Melting Activities of the Multifunctional Protein Nucleobindin 1” (International Journal of Molecular Sciences, 2023).

The term Kd denotes a measure of binding affinity in units of concentration. As a reminder, the stoichiometry N is the number of molecules, sites or subunits per partner or assembly.

Turning to “GUGGUCAGUCGAGUGGAAAAAAAAAAAAAAAAAA [A-rich]”, the Kd was determined as 5.7 nM in series [1], 1.4 nM with NUCB1 ΔN (Homo sapiens) and 0.3 nM with NUCB1 ΔZ (Homo sapiens).

As to “GUGGUCAGUCGAGUGGUUUUUUUUUUUUUUUUUU [U-rich]”, the Kd in series [1] is 0.2 nM; with NUCB1 ΔN (Homo sapiens), 1.7 nM; with NUCB1 ΔZ (Homo sapiens), 0.4 nM.

In the case of GUGGUCAGUCGAGUGGGGGGGG [G-rich], the Kd came to 18.2 nM in series [1], 5.3 nM with NUCB1 ΔN (Homo sapiens) and 3.1 nM with NUCB1 ΔZ (Homo sapiens).

B1: NUCB1 ΔN (239-461 aa) (domain or fragment, human, UniProt Q02818 239-461, looked up)
chain: T2 sequence
notes: Cloned in pET-28a; source: E. coli BL21(DE3)/pRARE, purified (Ni-NTA agarose; analysed by SEC on Superdex 200)
With B1, the “stoichiometry N” value in series [2] was 2.

B2: Nucleobindin 1 (NUCB1) lacking the signal peptide (1-30 aa) (natural protein, human, UniProt Q02818 31-461, looked up)
chain: RGAPNKEETPATESPDTGLYYHRYLQEVIDVLETDGHFREKLQAANAEDIKSGKLSRELDFVSHHVRTKLDELKRQEVSRLRMLLKAKMDAEQDPNVQVDHLNLLKQFEHLDPQNQHTFEARDLELLIQTATRDLAQYDAAHHEEFKRYEMLKEHERRRYLESLGEEQRKEAERKLEEQQRRHREHPKVNVPGSQAQLKEVWEELDGLDPNRFNPKTFFILHDINSDGVLDEQELEALFTKELEKVYDPKNEEDDMREMEEERLRMREHVMKNVDTNQDRLVTLEEFLASTQRKEFGDTGEGWETVEMHPAYTEEELRRFEEELAAREAELNAKAQRLSQETEALGRSQGRLEAQKRELQQAVLHMEQRKQQQQQQQGHKAPAAHPEGQLKFHPDTDDVPVPAPAGDQKEVDTSEKKLLERLPEVEVPQHL
notes: the C-terminal limit 461 is the one printed for NUCB1 ΔN, which was made with the same reverse primer; Cloned in pET-28a between EcoR I and Hind III from a HEK293T cDNA library; No removal of the His6 tag is described; also called Calnuc; intact NUCB1; source: E. coli BL21(DE3)/pRARE, purified (Ni-NTA agarose; analysed by SEC on Superdex 200)
Regarding B2, the “stoichiometry N” value in series [2] stood at 2.

As to GUGGUCAGUCGAGUGGUAACACUGUCUGGUAACGAUGU (ssRNA) [miR-200a-3p], the results for the Kd with NUCB1 ΔZ, with NUCB1 ΔN and in the series with NUCB1 CaBD were 0.3 ± 0.01 nM, 0.6 ± 0.09 nM and 5.2 ± 0.2 nM, respectively.
